Laboratory results taken from patent US5807729A, “Metalloprotease having increased activity” (Novo Nordisk A/S, priority 1995, dated 1998).
Read-outs that look alike come from different tables or passages of the source.

Legend:
[1] = system: Fusarium oxysporum metalloprotease; assay: Inhibition of Fusarium metalloprotease with 1,10-phenanthroline / EDTA and reactivation with Zn2+; format: biochemical
Procedure: (§1) Metalloprotease activity is measured as released trypsin activity from pro-trypsin-like Fusarium oxysporum protease deposited at the Deutsche Sammlung von Mikroorganismen, Gottingen, Germany under the number DSM 2672, after a 30-60 min pre-incubation at 25° C. in 0.1M Tris, 2 mM CaCl2, pH 7 (at lower pH, 100 mM borate, 10 mM DMG, 2 mM CaCl2 is used).
(§2) Metalloproteases contain a catalytic zinc metal center which participates in the hydrolysis of the peptide backbone. The active zinc center differentiates these proteases from calpains whose activities are dependent upon the presence of calcium. Confirmation of a protease as a metallo-protease is loss of proteolytic activity accomplished by removal of the zinc center with 1,10-phenanthroline (1 mM) followed by titration with Zn^2+ (0.1-100 μM) to restore full activity.
(§3) However, when combined the metalloprotease cleaves recombinant pro-trypsin-like Fusarium oxysporum protease disclosed, supra to yield the active tryptic protease. Metalloprotease activity is halted upon the addition of 1 mM 1,10-phenanthroline (Table 1).

succinylated casein [2] = target: succinylated casein
[3] = system: Bacillus stearothermophilus thermolysin; assay: Inhibitor analysis of B.s. thermolysin; format: biochemical; settings: for type of inhibition, B.s. Thermolysin: kinetic analysis; for Ki: read-out: Inhibition Constant (Ki), B.s. Thermolysin
Procedure: (§4) Other metalloprotease inhibitors are utilized to further differentiate the p45 metalloprotease from the Bacillus thermolysins. Inhibition constants for 1,10-phenanthroline, phosphoramidon, and CdCl2 are determined to be 130 uM, 1 uM, and 67 uM against the p45 Metalloprotease (Table 3). Inhibition constants for 1,10-phenanthroline, phosphoramidon, and CdCl2 are 85 uM, 26 uM, and 2 uM against the Bacillus stearothermophilus thermolysin. […] It is of interest to note that phophoramidon is an effective inhibitor of many bacterial metallo-endopeptidases but few of mammalian origin. Also, it is interesting that CdCl2 is found to be such an effective inhibitor of metalloproteases. No evidence of CdCl2 inhibition of metalloproteases has been found in the literature.

p45 Metalloprotease = p45 Metalloprotease (Fusarium oxysporum, UniProt M1UZ70); assay: Inhibitor analysis of the p45 metalloprotease; format: biochemical; parameters: precursor 632 aa (18 signal, 226 pro); native or A. oryzae-expressed with same N-terminus; settings: for type of inhibition, p45 Maturase: kinetic analysis
Procedure: as §4

FTC-labeled casein [4] = target: FTC-labeled casein
[5] = target: pro-trypsin-like Fusarium oxysporum protease (Fusarium oxysporum) (UniProt P35049)
succinylated casein [6] = target: succinylated casein; remark: listed apart in the source
[7] = system: pro-trypsin-like Fusarium oxysporum protease; assay: Proteolytic enzyme assay: tryptic activity released from pro-trypsin-like protease, L-BAPNA, 405 nm; format: biochemical
Procedure: as §1, §2, §3

[8] = system: Ac-Pro-Leu-Gly[2-mercapto-4-methyl-pentanoyl]-Leu-Gly-OEt; assay: Hydrolysis of the thermolytic merc-peptide substrate (Ellman's reagent, 405 nm); format: biochemical
Procedure: The thermolytic substrate Ac-Pro-Leu-Gly[2-mercapto-4-methyl-pentanoyl]-Leu-Gly-OEt (i.e. the merc-peptide) is also used to further characterize the p45 metalloprotease and B.t. thermolysin.
Reaction mixtures contain 100 microliters of Ac-Pro-Leu-Gly[2-mercapto-4-methyl-pentanoyl]-Leu-Gly-OEt (1 mM, and 1 mM Ellman's reagent) and 100 microliters of either B.t. thermolysin or purified p45 metalloprotease (0-3 ug/ml) in sample buffer.

FTC-labeled casein [9] = assay: Protease analysis using FTC-labeled casein; format: biochemical
Procedure: Samples are incubated at room temperature for 30 minutes.

succinylated casein [10] = assay: Casein hydrolysis, succinylated casein assay (QuantiCleave, BCA, 600 nm); format: biochemical; settings: for maximum absorbance, casein hydrolysis: pH 6.5, room temperature, 40 minutes, FIG. 8
Procedure: 400 ul of casein solution (Pierce) is added to small test tubes along with 100 ul of protease. The tubes are vortexed and incubated at room temperature for 40 minutes. The incubation (and assay) buffer is 0.1 M borate, 2 mM CaCl2, and 10 mM dimethylglutarate, pH 6.5. At the end of the incubation, 60 microliters of trichloroacetic acid (100% w/v) is added, and the tubes are vortexed and centrifuged for 1 minute at 5000×g. 20 microliters of the resulting supernatant is placed into a microtiter plate well with 200 microliters of the BCA working reagent (Pierce). The plates are then vortexed and incubated another 30 minutes, then read at 600 nm using a Biomek 1000 microtiter plate reader.
400 microliters of casein solution (Pierce) are added to small test tubes along with 100 microliters of protease in buffer "A" (0.1M borate, 2 mM CaCl2 and 10 mM dimethylglutaric acid). At the end of the incubation, 60 microliters of trichloroacetic acid (100% w/v) is added, and the tubes are vortexed and centrifuged for 1 minute at 5000×g. 20 microliters of the resulting supernatant is placed into a microtiter plate well with 200 microliters of the BCA working reagent (Pierce). The plates are then vortexed and incubated another 30 minutes, then read at 600 nm using a Biomek 1000 microtiter plate reader.

[11] = system: pro-trypsin-like F. oxysporum protease; assay: Processing of pro-trypsin-like F. oxysporum protease to active trypsin-like protease
Procedure: Activatable pro-trypsin-like F. oxysporum protease is determined in microtiter wells as released trypsin-like F. oxysporum protease (tryptic) activity from pro-trypsin-like F. oxysporum protease after a 40 minute pre-incubation at room temperature with purified Fusarium oxysporum metalloprotease (approximately 6 ug).
Processed pro-trypsin-like F. oxysporum protease(i.e. mature trypsin-like F. oxysporum protease) activity is determined directly from microtiter plates containing the pre-incubated metalloprotease/pro-trypsin-like F. oxysporum protease cocktail (total volume=100 microliters), and 100 microliters of substrate (87 mg/ml.L-BAPNA stock in DMSO diluted 50-fold in sample buffer). Again, active trypsin-like F. oxysporum protease is determined as an increase in absorbance at 405 nm immediately after L-BAPNA addition.
Purified pro-trypsin-like F. oxysporum protease is added to fresh A. oryzae fermentation broths containing the recombinant p45 metalloprotease (approximately 90 mg/L) and incubated for either 1, 2, or 3 hours at room temperature. Levels of pro-trypsin-like F. oxysporum protease in the incubation mixtures range from 100 ug/ml to 13 mg/ml.
Purified pro-trypsin-like F. oxysporum protease (100 ug/ml) is added to various amounts of either purified recombinant p45 metalloprotease or purified B.s. metalloprotease.

[12] = system: succinyl-Ala-Ala-Ala-p-nitroanilide; assay: Hydrolysis of succinyl-Ala-Ala-Ala-p-nitroanilide; format: biochemical
Excerpt: Both p45 metalloprotease and a neutral zinc endopeptidase secreted by Flavobacterium meningosepticum poorly hydrolyze the substrate N-[3-(2--furyl)acryloyl]-Leu-Gly-NH2. However, the neutral zinc endopeptidase secreted by Flavobacterium meningosepticum will hydrolyze the vertebrate elastase substrate succinyl-Ala-Ala-Ala-p-nitroanilide, a substrate that thermolysin cannot hydrolyze (Table 2). Therefore, succinyl-Ala-Ala-Ala-p-nitroanilide hydrolysis by the p45 metalloprotease is investigated. […] This effect further differentiates the p45 metalloprotease from other existing metalloproteases.

[13] = system: FAGLA: N-(3-[2-Furyl]Acryloyl)-Gly-Leu amide; assay: FAGLA hydrolysis (345 nm); format: biochemical
Procedure: The thermolytic substrate FAGLA: N-(3-[2-Furyl]Acryloyl)-Gly-Leu amide is used to further characterize the p45 metalloprotease and B.t. thermolysin. Reaction mixtures contain 100 microliters of N-(3-[2-Furyl]Acryloyl)-Gly-Leu amide (FAGLA) (2 mM) and 100 microliters of various concentrations of either thermolysin (Boehringer Mannheim) or purified p45 metalloprotease. Thermolytic activity is determined as a decrease in absorbance at 345 nm on the recording spectrometer for one minute(Shimadzu, UV160U). The linear range of the assay for thermolysin is 10-500 ug/ml thermolysin in the assay mix.

FTC-labeled casein [14] = assay: Thermal stability profile, FTC-casein hydrolysis; format: biochemical; settings: 15 minutes at various temperatures, Universal buffer pH 7; FIG. 9
Procedure: Purified p45 metalloprotease or B.t. thermolysin (Boehringer Mannheim) (50 microliters, 0.1 mg/ml) are incubated at various temperatures for 15-minutes in Universal buffer, pH 7. Ten microliters of sample are then added to 30 microliters of Universal pH buffer (pH 7) and 20 microliters of FTC-labeled casein and are incubated at 37° C. for 1 hour. 150 microliters of 5% TCA is added to acidify and precipitate casein (1 hour at room temperature). […] Samples are then analyzed on the fluorimeter (slit width=2.5 nm; excitation freq.=490 nm; emission freq.=525 nm; integration time=2 sec).

In the case of [Zn+2] [Zn^2+], the “reactivation of the 1,10-phenanthroline-inhibited Fusarium metalloprotease” value ([1]; addition of 1 mM Zn2+) is reported as “full reactivation”.

dispase (enzyme) gave a maximum absorbance, succinylated casein hydrolysis (succinylated casein [2]) of 0.47 absorbance.

With [Cl][Cd][Cl] [CdCl2] the “type of inhibition, B.s. Thermolysin” value [3] was “Competitive”, the Ki [3] was 2 µM and the “type of inhibition, p45 Maturase” value (p45 Metalloprotease) was “Noncompetitive”. For the same molecule, the Ki (p45 Metalloprotease; read-out: Inhibition Constant (Ki), p45 Maturase) was 67 µM.

In the case of CC(C)C[C@H](NP(=O)(O)O[C@@H]1O[C@@H](C)[C@H](O)[C@@H](O)[C@H]1O)C(=O)N[C@@H](Cc1c[nH]c2ccccc12)C(=O)O [phosphoramidon], the “type of inhibition, B.s. Thermolysin” value [3] is reported as “Noncompetitive”, the Ki [3] is reported as 26 µM and the Ki (p45 Metalloprotease) is reported as 1 µM. For the same molecule, the “type of inhibition, p45 Maturase” value (p45 Metalloprotease) was “Noncompetitive”.

“p45 metalloprotease from Fusarium oxysporum (enzyme)” gave a Specific Activity (fluorescence released from FTC-casein) (FTC-labeled casein [4]) of 170 FU/min·mg, a Specific Activity (released trypsin activity, L-BAPNA) (g trypsin/min*mg) [5] of 1.2 and a maximum absorbance, succinylated casein hydrolysis (succinylated casein [6]) of 0.3 O.D.

O=C(O)CN(CCN(CC(=O)O)CC(=O)O)CC(=O)O [EDTA] was tested, and the “metalloprotease activity upon addition of the inhibitor” value ([1]; inhibitor 1 mM) was “Analogous results”.

“neutral metalloprotease from Bacillus stearothermophilus (enzyme)” gave a Specific Activity (fluorescence released from FTC-casein) (FTC-labeled casein [4]) of 220 FU/min·mg, a Specific Activity (released trypsin activity, L-BAPNA) (g trypsin/min*mg) [5] of 0.018 and a maximum absorbance, succinylated casein hydrolysis (succinylated casein [6]) of 0.47 O.D.

B1: Pro-trypsin-like F. oxysporum protease: recombinant proenzyme form of the trypsin-like F. oxysporum protease (protein)
chain: APQEIPNIVGGTSASAGDFPFIVSISRNGGPWCGGSLLNANTVLTAAHCVSGYAQSGFQIRAGSLSRTSGGITSSLSSVRVHPSYSGNNNDLAILKLSTSIPSGGNIGYARLAASGSDPVAGSSATVAGWGATSEGGSSTPVNLLKVTVPIVSRATCRAQYGTSAITNQMFCAGVSSGGKDSCQGDSGGPIVDSSNTLIGAVSWGNGCARPNYSGVYASVGALRSFIDTYA
For B1, the “tryptic activity of the sample alone” value ([7]; sample alone) was “do not contain any tryptic activity” and the “Tryptic Activity” value ([7]; without 1,10-phenanthroline, without Zn2+) was 1.26 Δ Abs/min × 10^-4.

B2: Thermolysin from Bacillus thermoproteolyticus (enzyme)
chain: ITGTSTVGVGRGVLGDQKNINTTYSTYYYLQDNTRGNGIFTYDAKYRTTLPGSLWADADNQFFASYDAPAVDAHYYAGVTYDYYKNVHNRLSYDGNNAAIRSSVHYSQGYNNAFWNGSQMVYGDGDGQTFIPLSGGIDVVAHELTHAVTDYTAGLIYQNESGAINEAISDIFGTLVEFYANKNPDWEIGEDVYTPGISGDSLRSMSDPAKYGDPDHYSKRYTGTQDNGGVHINSGIINKAAYLISQGGTHYGVSVVGIGRDKLGKIFYRALTQYLTPTSNFSQLRAAAVQSATDLYGSTSQEVASVKQAFDAVGVK
With B2 the maximum absorbance, succinylated casein hydrolysis (succinylated casein [2]) was 0.47 absorbance.

B3: B.s. Thermolysin: thermolysin / neutral metalloprotease from Bacillus stearothermophilus (B.s.) (protein, UniProt P43133 236-551, looked up)
Thermolysin: B2 chain
In the case of B3, the “Specific Activity, substrate merc-peptide” value [8] is reported as 2.9 AU/min*mg, the “Specific Activity, substrate FTC-Labelled Casein” value (FTC-labeled casein [9]) is reported as 220 FU/min*mg and the “Specific Activity, substrate Succinylated Casein (maximal level)” value (succinylated casein [10]) is reported as 0.47 O.D. For the same molecule, the “maximum absorbance, casein hydrolysis” value (succinylated casein [10]) was about 0.47 O.D. units, the “Specific Activity, substrate pro-trypsin” value [11] was “.018 g trypsin/min*mg” and the “Specific Activity, substrate Ala-Ala-Ala-pNA” value [12] was under 2 pmol pNA/min*mg. The “hydrolysis of succinyl-Ala-Ala-Ala-p-nitroanilide” value ([12]; substrate 4.4 mM in 0.1M Tris, pH 8) was “neither, the p45 metalloprotease nor the B.s. thermolysin would hydrolyze” and the “Specific Activity, substrate FAGLA” value [13] was 227 -AU/sec*mg.

B4: thermolysin: Thermolysin from Bacillus thermoproteolyticus (B.t.), purchased from Boehringer Mannheim (protein)
chain: B2 chain
B4 was tested, and the “optimum temperature for hydrolysis of FTC-casein” value (FTC-labeled casein [14]) was 80 °C and the “maximum absorbance, casein hydrolysis” value (succinylated casein [10]) was about 0.47 O.D. units.
